± gives the standard deviation of the averaged measurements.
Tested on: Saccharomyces cerevisiae
Assay: protein stability index of tFT-peptide fusion (C-terminal peptide) (PSI (0-1 scale)); higher = more stable (slower turnover)
Settings: temperature: 30 C
Experimental: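 MPS profiling in S. cerevisiae of the yeast C-terminome library: the last 12 aa of each annotated ORF are fused to the C-terminus of a sfGFP-mCherry timer, after a GGGS linker. Cells are FACS-sorted into 8 mCherry/sfGFP bins and deep-sequenced. PSI runs from 0 (unstable) to 1 (stable); wild type and das1Δ backgrounds, two technical replicates each.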

[1] = genetic background: das1 deletion

Row | Sequence | protein stability index [1] | protein stability index (genetic background: wild type)
1 | STHGPGIVIDFA [MRPL1 C-terminal 12 aa] | 0.724 ± 0.011 | 0.761 ± 0.089
2 | RSDTKEPLALLS [VPS20 C-terminal 12 aa] | 0.6784 ± 0.0067 | 0.646 ± 0.01
3 | SDHCWDGCWWCR [AQY2 C-terminal 12 aa] | 0.7424 ± 0.0017 | 0.765 ± 0.041
4 | TPLGQTLLDSRR [DAL1 C-terminal 12 aa] | 0.6757 ± 0.0015 | 0.67 ± 0.011
5 | KKLSNDGETQAN [DMO2 C-terminal 12 aa] | 0.681 ± 0.013 | 0.655 ± 0.011
6 | LKNYLEAQIAKK [YPR097W C-terminal 12 aa] | 0.692 ± 0.03 | 0.721 ± 0.016
7 | ESSARRDRKEHI [TMA23 C-terminal 12 aa] | 0.679 ± 0.035 | 0.701 ± 0.041
8 | AANAEILSKINK [POX1 C-terminal 12 aa] | 0.713 ± 0.017 | 0.683 ± 0.0089
9 | TSNDLPAECVIS [EGH1 C-terminal 12 aa] | 0.72 ± 0.0097 | 0.68843 ± 0.00034
10 | QGHGPVSPSPTK [PTM1 C-terminal 12 aa] | 0.701 ± 0.022 | 0.723 ± 0.086
11 | TVNLIKSQLVRG [COQ9 C-terminal 12 aa] | 0.6064 ± 0.0011 | 0.635 ± 0.047
12 | SCFSYSVGSKFT [YPR170W-A C-terminal 12 aa] | 0.7068 ± 0.0063 | 0.703 ± 0.014
13 | NCIETFVAEKTT [SRB6 C-terminal 12 aa] | 0.679 ± 0.014 | 0.669 ± 0.0071
14 | SRRRPFIGPETV [YMR057C C-terminal 12 aa] | 0.709 ± 0.037 | 0.703 ± 0.0072
15 | KMLWQGITDYYI [YOL163W C-terminal 12 aa] | 0.7357 ± 0.0031 | 0.717 ± 0.021
16 | KTTPRNVELFGM [DXO1 C-terminal 12 aa] | 0.678 ± 0.021 | 0.693 ± 0.018
17 | ELTKQHGNKDSN [RTK1 C-terminal 12 aa] | 0.7 ± 0.025 | 0.659 ± 0.0056
18 | GDDDIDDDDDMI [TVP15 C-terminal 12 aa] | 0.691 ± 0.023 | 0.677 ± 0.023
19 | VLDVGSVLDVTI [PSR2 C-terminal 12 aa] | 0.718 ± 0.035 | 0.6934 ± 0.00093
20 | STLAGEWRLIIA [YBR284W C-terminal 12 aa] | 0.498 ± 0.0089 | 0.518 ± 0.019
21 | SNSSICFPLTIF [YKL136W C-terminal 12 aa] | 0.6337 ± 0.0033 | 0.2798 ± 0.0007
22 | LSADGIYTAVPN [PAU17 C-terminal 12 aa] | 0.695 ± 0.018 | 0.702 ± 0.011
23 | QIITISNANSHA [MBP1 C-terminal 12 aa] | 0.705 ± 0.026 | 0.688 ± 0.038
24 | IFVFFVIWVLVN [SED5 C-terminal 12 aa] | 0.209 ± 0.019 | 0.211 ± 0.015
25 | IVTEWVKKPCLC [MUP3 C-terminal 12 aa] | 0.546 ± 0.013 | 0.489 ± 0.01
26 | AIARCALGETLL [CAR1 C-terminal 12 aa] | 0.685 ± 0.011 | 0.641 ± 0.011
27 | TPKPVDTDDEED [NEW1 C-terminal 12 aa] | 0.685 ± 0.023 | 0.707 ± 0.035

Row | Sequence | protein stability index [1] | protein stability index (genetic background: wild type)
28 | PQMARKQRGHIG [SDS23 C-terminal 12 aa] | 0.678 ± 0.024 | 0.681 ± 0.0087
29 | MKGPAALWDVQF [ARP9 C-terminal 12 aa] | 0.724 ± 0.012 | 0.744 ± 0.044
30 | VPVILREYKGSA [GCD2 C-terminal 12 aa] | 0.725 ± 0.017 | 0.665 ± 0.0075
31 | SLEKELISRGYR [CDC73 C-terminal 12 aa] | 0.724 ± 0.0099 | 0.685 ± 0.02
32 | LLAKQLLLLLLR [YER079C-A C-terminal 12 aa] | 0.33 ± 0.018 | 0.342 ± 0.0063
33 | KESPANDQASNE [MLP2 C-terminal 12 aa] | 0.688 ± 0.0091 | 0.677 ± 0.032
34 | TAEEQEQSACQC [YPT6 C-terminal 12 aa] | 0.6863 ± 0.0043 | 0.687 ± 0.021
35 | RIYDFFQSQNWM [ADA2 C-terminal 12 aa] | 0.7311 ± 0.0031 | 0.7058 ± 0.0047
36 | FHHMLIFIILKL [PRM2 C-terminal 12 aa] | 0.203 ± 0.013 | 0.193 ± 0.028
37 | NERGLSSNYQTI [FMP42 C-terminal 12 aa] | 0.7217 ± 0.0025 | 0.6736 ± 0.0013
38 | NEDSMEIDDDLD [HSP104 C-terminal 12 aa] | 0.6988 ± 0.0014 | 0.665 ± 0.021
39 | LYGKYNYAAQKV [YDL124W C-terminal 12 aa] | 0.692 ± 0.013 | 0.333 ± 0.014
40 | QNEQLQMLSNSV [ATG31 C-terminal 12 aa] | 0.723 ± 0.028 | 0.673 ± 0.046
41 | SHDMDFNNAGDF [HMS1 C-terminal 12 aa] | 0.707 ± 0.03 | 0.7067 ± 0.0045
42 | AIAPTSLLTPMP [YER087C-A C-terminal 12 aa] | 0.6937 ± 0.0021 | 0.733 ± 0.013
43 | EPSLRGHLIFVL [YBR300C C-terminal 12 aa] | 0.515 ± 0.0098 | 0.5178 ± 0.0049
44 | RAMNEDETLRNL [ORC1 C-terminal 12 aa] | 0.6957 ± 0.0042 | 0.746 ± 0.012
45 | LINGTRIMNSIS [VPS33 C-terminal 12 aa] | 0.684 ± 0.01 | 0.532 ± 0.0095
46 | GLEHSDPFSTFY [DBF2 C-terminal 12 aa] | 0.71206 ± 0.0003 | 0.712 ± 0.025
47 | VARLKDESENVW [COX16 C-terminal 12 aa] | 0.689 ± 0.018 | 0.732 ± 0.041
48 | EQEVIFTDLTAY [ECM32 C-terminal 12 aa] | 0.742 ± 0.015 | 0.7 ± 0.012
49 | GSYATRAYGQKK [FDH1 C-terminal 12 aa] | 0.694 ± 0.011 | 0.688 ± 0.018
50 | TPENNHLKWLIK [UGX2 C-terminal 12 aa] | 0.716 ± 0.024 | 0.685 ± 0.035
51 | SLQVILEFVSQH [SXM1 C-terminal 12 aa] | 0.654 ± 0.029 | 0.6248 ± 0.0024
52 | VAAKIAALAGQQ [RPL5 C-terminal 12 aa] | 0.708 ± 0.026 | 0.717 ± 0.028
53 | KNNEVLLHKIKI [FAR8 C-terminal 12 aa] | 0.715 ± 0.015 | 0.669 ± 0.056
54 | IREFLEEIVDTQ [SUS1 C-terminal 12 aa] | 0.725 ± 0.081 | 0.728 ± 0.091

Row | Sequence | protein stability index [1] | protein stability index (genetic background: wild type)
55 | DTSPAQEQSPAN [ARG80 C-terminal 12 aa] | 0.695 ± 0.026 | 0.709 ± 0.013
56 | VDDIVSGVRKQE [CCT3 C-terminal 12 aa] | 0.691 ± 0.028 | 0.677 ± 0.011
57 | VTLLQMKKKLEG [PET20 C-terminal 12 aa] | 0.6926 ± 0.0053 | 0.761 ± 0.042
58 | AKKKKKRIRGFG [RRN6 C-terminal 12 aa] | 0.686 ± 0.015 | 0.671 ± 0.034
59 | FTNALKNMYFSA [YJR037W C-terminal 12 aa] | 0.709 ± 0.0094 | 0.585 ± 0.019
60 | LADEEDAIHDEL [PDI1 C-terminal 12 aa] | 0.68604 ± 0.00055 | 0.678 ± 0.023
61 | ESKKTKGEELTL [ARG1 C-terminal 12 aa] | 0.6793 ± 0.0016 | 0.669 ± 0.015
62 | TDELWEMLLDQA [MET12 C-terminal 12 aa] | 0.762 ± 0.039 | 0.723 ± 0.072
63 | SPISVDFSSYLS [NBP1 C-terminal 12 aa] | 0.734 ± 0.015 | 0.72 ± 0.058
64 | EKVNEILRSTEK [GCD14 C-terminal 12 aa] | 0.69 ± 0.0098 | 0.717 ± 0.0097
65 | NDGTFLDEVTKN [OPI10 C-terminal 12 aa] | 0.6922 ± 0.0066 | 0.687 ± 0.03
66 | GSSVPLDLTLFT [VRP1 C-terminal 12 aa] | 0.728 ± 0.012 | 0.714 ± 0.0093
67 | ADGNPLQALPQL [TOM40 C-terminal 12 aa] | 0.7077 ± 0.0065 | 0.666 ± 0.024
68 | KKVLLQAKQYSK [UBC9 C-terminal 12 aa] | 0.678 ± 0.017 | 0.682 ± 0.031
69 | SWSGDNEAHRWT [NPT1 C-terminal 12 aa] | 0.716 ± 0.023 | 0.686 ± 0.016
70 | KRPPLPNMSFSW [YLL019W-A C-terminal 12 aa] | 0.776 ± 0.025 | 0.728 ± 0.028
71 | RILKDEIPIGED [BET3 C-terminal 12 aa] | 0.702 ± 0.017 | 0.659 ± 0.0079
72 | NQKKKFKMEFRG [SAP30 C-terminal 12 aa] | 0.6956 ± 0.0027 | 0.665 ± 0.0075
73 | TAESDDDEEDDE [TIF5 C-terminal 12 aa] | 0.688 ± 0.026 | 0.709 ± 0.052
74 | AYFPQKYKHKYI [PRM6 C-terminal 12 aa] | 0.689 ± 0.0077 | 0.5656 ± 0.004
75 | HVAPYAIIPFII [DFG10 C-terminal 12 aa] | 0.724 ± 0.0075 | 0.151 ± 0.024
76 | IDLFRDAYNHEN [UPS2 C-terminal 12 aa] | 0.7353 ± 0.0064 | 0.70705 ± 3.4e-05
77 | VFKMIMFIASNE [STU1 C-terminal 12 aa] | 0.581 ± 0.0076 | 0.5559 ± 0.0028
78 | ANKKARHFNNSA [VAM7 C-terminal 12 aa] | 0.687 ± 0.017 | 0.698 ± 0.019
79 | GKQKQLLFHIGV [HEL2 C-terminal 12 aa] | 0.6865 ± 0.0042 | 0.718 ± 0.035
80 | LSLTLVSIIKTA [COG2 C-terminal 12 aa] | 0.618 ± 0.025 | 0.193 ± 0.0064
